These results are taken from patent publication US20240409621A1.

Experiment [1] deals with F protein of RSV type B strain 18537 (on the virus in the neutralization assay) (respiratory syncytial virus type B, strain 18537) (UniProt P13843). Briefly: cell-based or functional assay.
Experiment [2] has as its target F protein of RSV A2 (on the virus in the neutralization assay) (respiratory syncytial virus, A2 strain) (UniProt P03420). As to the kind of experiment: cell-based or functional assay.

As to D25 (antibody), in experiment [1], the IC50 of each RSV neutralizing antibody, 18537 came out at 0.167 µg/mL. Moreover, in experiment [2], the IC50 of each RSV neutralizing antibody, RSV A2 worked out at 0.0222 µg/mL.
